Measurements published in IntAct's records for PubMed 11248247.

B1: Twist-related protein 1 (Homo sapiens), Q15672 (parent)
chain: MMQDVSSSPVSPADDSLSNSEEEPDRQQPPSGKRGGRKRRSSRRSAGGGAGPGGAAGGGVGGGDEPGSPAQGKRGKKSAGCGGGGGAGGGGGSSSGGGSPQSYEELQTQRVMANVRERQRTQSLNEAFAALRKIIPTLPSDKLSKIQTLKLAARYIDFLYQVLQSDELDSKMASCSYVAHERLSYAFSVWRMEGAWSMSASH

Variants of: B1
Conditions: with TCF3, P15923-1
TCF3, P15923-1, sequence (P15923 whole entry): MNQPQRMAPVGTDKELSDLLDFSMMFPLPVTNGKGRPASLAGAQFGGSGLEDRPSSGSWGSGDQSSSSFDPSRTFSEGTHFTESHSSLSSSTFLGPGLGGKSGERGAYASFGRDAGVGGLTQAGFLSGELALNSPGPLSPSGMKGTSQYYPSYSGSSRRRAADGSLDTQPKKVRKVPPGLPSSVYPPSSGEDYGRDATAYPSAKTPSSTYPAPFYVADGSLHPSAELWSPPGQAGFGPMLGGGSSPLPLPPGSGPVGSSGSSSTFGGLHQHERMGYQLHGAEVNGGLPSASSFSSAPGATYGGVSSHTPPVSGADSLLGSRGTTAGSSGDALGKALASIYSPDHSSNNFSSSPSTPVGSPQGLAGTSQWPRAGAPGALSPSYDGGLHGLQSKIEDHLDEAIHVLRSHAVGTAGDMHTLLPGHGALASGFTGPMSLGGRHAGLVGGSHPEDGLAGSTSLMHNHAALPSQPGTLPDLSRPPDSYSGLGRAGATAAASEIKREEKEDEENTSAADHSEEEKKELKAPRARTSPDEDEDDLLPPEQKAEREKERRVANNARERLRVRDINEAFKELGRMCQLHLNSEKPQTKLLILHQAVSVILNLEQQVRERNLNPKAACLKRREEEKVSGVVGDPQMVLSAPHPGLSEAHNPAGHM

| Variant | effect of a mutation on the interaction |
| --- | --- |
| MMQDVSSSPVSPADDSLSNSEEEPDRQQPPSGKRGGRKRRSSRRSAGGGAGPGGAAGGGVGGGDEPGSPAQGKRGKKSAGCGGGGGAGGGGGSSSGGGSPQSYEELQTQRVMANVRERQRTQSLNEAFAALRKIIPTLPSDKLSEIQTLKLAARYIDFLYQVLQSDELDSKMASCSYVAHERLSYAFSVWRMEGAWSMSASH [K145E] | decreasing interaction strength |
| MMQDVSSSPVSPADDSLSNSEEEPDRQQPPSGKRGGRKRRSSRRSAGGGAGPGGAAGGGVGGGDEPGSPAQGKRGKKSAGCGGGGGAGGGGGSSSGGGSPQSYEELQTQRVMANVRECQRTQSLNEAFAALRKIIPTLPSDKLSKIQTLKLAARYIDFLYQVLQSDELDSKMASCSYVAHERLSYAFSVWRMEGAWSMSASH [R118C] | with no effect |
| MMQDVSSSPVSPADDSLSNSEEEPDRQQPPSGKRGGRKRRSSRRSAGGGAGPGGAAGGGVGGGDEPGSPAQGKRGKKSAGCGGGGGAGGGGGSSSGGGSPQSYEELQTQRVMANVRERQRTQSLNEAFAALRKIIPTLPSDKLRKIQTLKLAARYIDFLYQVLQSDELDSKMASCSYVAHERLSYAFSVWRMEGAWSMSASH [S144R] | with no effect |

Variants of: B1
Conditions: with TCF3, P15923-1
Remark: another data set of the same source

| Variant | effect of a mutation on the interaction |
| --- | --- |
| MMQDVSSSPVSPADDSLSNSEEEPDRQQPPSGKRGGRKRRSSRRSAGGGAGPGGAAGGGVGGGDEPGSPAQGKRGKKSAGCGGGGGAGGGGGSSSGGGSPQSYEELQTQRVMANVRERQRTQSLNEAFAALRKIIPTLPSDKLSEIQTLKLAARYIDFLYQVLQSDELDSKMASCSYVAHERLSYAFSVWRMEGAWSMSASH [K145E] | with no effect |
